Measurements: paper PMC12305709, “Functional investigation of the RNA helicase MOV10 with respect to its interplay with factors involved in nonsense-mediated mRNA decay” (The Journal of Biological Chemistry, 2025)
Values belong to the molecule of their own block, whether it stands above or below them.

Experiments:
UPF1 [1] = molecular target: T1, UPF1 (Homo sapiens, UniProt Q92900-2 115-914)
T1 sequence: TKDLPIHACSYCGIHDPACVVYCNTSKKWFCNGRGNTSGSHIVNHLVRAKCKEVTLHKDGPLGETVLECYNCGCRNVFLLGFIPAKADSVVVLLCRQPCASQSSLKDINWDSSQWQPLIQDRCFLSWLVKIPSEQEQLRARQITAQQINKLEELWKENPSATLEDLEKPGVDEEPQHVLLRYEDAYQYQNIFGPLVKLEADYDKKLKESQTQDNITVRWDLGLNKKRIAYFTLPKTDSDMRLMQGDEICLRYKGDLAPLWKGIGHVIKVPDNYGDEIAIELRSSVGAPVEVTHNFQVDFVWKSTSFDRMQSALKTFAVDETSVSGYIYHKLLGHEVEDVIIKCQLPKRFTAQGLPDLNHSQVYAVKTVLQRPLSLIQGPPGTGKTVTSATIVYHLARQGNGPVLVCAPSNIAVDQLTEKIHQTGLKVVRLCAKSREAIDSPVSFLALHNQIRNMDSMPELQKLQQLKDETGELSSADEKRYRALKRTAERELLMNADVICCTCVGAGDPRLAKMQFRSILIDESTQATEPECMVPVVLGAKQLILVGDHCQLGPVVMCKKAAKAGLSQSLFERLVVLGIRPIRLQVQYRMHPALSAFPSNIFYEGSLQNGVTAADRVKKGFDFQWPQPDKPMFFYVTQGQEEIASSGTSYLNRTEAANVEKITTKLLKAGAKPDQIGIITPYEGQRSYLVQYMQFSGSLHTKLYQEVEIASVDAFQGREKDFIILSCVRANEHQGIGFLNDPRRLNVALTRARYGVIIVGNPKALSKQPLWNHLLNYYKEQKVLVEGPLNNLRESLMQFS

[2] = molecular target: GST-MOV10NTD-UPF1hel (human) (UniProt Q92900)
[3] = molecular target: T2, MOV10NTD-UPF1hel (Chimera 3) (Homo sapiens, UniProt Q9HCE1 1-264+=GSAGAAGSGA+Q92900-2:295-914, internal_change); test: fluorescence anisotropy; no nucleotide; 1 mM Mg2+; 20 mM Hepes pH 7.5, 100 mM NaCl, 1 mM MgCl2, 100 ug/ml BSA; 5 nM RNA; 30 min room temperature, read at 25 C; settings: protein: recombinant; tags: 6xHis, His-Trx or His-GST fusion in E. coli; label: 5' 6-FAM; single strand
T2 sequence: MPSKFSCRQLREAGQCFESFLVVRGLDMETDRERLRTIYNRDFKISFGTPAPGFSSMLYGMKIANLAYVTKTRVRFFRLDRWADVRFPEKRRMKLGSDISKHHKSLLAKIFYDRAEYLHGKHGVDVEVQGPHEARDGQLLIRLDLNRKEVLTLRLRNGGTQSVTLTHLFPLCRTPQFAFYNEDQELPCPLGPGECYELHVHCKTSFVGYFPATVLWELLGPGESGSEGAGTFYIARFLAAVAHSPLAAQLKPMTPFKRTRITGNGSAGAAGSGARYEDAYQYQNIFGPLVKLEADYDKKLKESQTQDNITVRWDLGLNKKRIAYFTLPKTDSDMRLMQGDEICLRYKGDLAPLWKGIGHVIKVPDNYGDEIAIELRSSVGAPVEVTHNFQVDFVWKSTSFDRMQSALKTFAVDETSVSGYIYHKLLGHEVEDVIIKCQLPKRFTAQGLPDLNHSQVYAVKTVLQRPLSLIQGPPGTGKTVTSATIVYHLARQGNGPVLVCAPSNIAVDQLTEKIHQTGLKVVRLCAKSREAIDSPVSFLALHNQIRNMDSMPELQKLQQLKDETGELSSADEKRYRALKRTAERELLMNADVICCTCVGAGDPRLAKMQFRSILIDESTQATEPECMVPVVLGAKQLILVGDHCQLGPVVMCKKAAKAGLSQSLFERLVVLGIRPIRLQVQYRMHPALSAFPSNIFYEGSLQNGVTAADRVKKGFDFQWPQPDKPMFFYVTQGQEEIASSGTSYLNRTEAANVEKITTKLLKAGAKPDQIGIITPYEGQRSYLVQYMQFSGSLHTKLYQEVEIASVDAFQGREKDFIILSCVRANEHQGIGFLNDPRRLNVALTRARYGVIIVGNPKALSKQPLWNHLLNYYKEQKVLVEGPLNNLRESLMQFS

UPF1 [4] = molecular target: T1, UPF1; test: fluorescence anisotropy; no nucleotide; affinity comparable to P1; Kd only in figure; 20 mM Hepes pH 7.5, 100 mM NaCl, 1 mM MgCl2, 100 ug/ml BSA; 5 nM RNA; 30 min room temperature, read at 25 C; settings: protein: recombinant; tags: 6xHis, His-Trx or His-GST fusion in E. coli; label: 5' 6-FAM; single strand
Flag-MOV10hel = molecular target: T3, Flag-MOV10hel (human, UniProt Q9HCE1 289-1001); test: co-IP; as a2, but cell lysates treated with RNase A (60 ug/uL, 10 min, 25 C); SDS-PAGE, Coomassie, densitometry of the UPF2 band; settings: both partners purified
T3 construct: MOV10, human, helicase core, residues 289-1001; also called helicase core of MOV10; source: HEK293, transfected, immunopurified on anti-Flag M2 agarose
T3 sequence (looked up): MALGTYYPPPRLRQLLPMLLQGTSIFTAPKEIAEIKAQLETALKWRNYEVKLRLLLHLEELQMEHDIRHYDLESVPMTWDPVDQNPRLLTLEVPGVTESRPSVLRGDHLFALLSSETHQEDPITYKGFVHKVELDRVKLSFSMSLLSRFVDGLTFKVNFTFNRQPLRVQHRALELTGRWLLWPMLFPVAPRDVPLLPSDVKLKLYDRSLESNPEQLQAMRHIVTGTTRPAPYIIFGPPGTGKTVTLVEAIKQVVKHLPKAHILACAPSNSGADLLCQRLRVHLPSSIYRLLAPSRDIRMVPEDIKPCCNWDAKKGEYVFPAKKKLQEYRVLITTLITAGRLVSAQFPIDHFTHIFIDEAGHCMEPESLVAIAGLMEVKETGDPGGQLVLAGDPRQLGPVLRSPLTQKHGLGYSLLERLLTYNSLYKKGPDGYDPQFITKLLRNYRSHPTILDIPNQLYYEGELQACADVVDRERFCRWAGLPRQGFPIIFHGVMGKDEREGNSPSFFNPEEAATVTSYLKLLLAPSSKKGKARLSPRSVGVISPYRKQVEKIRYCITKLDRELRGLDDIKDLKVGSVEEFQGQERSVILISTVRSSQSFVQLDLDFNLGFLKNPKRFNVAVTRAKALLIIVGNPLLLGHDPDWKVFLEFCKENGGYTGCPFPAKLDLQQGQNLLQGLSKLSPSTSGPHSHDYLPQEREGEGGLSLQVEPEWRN

Sequence of GST-MOV10NTD-UPF1hel (human) (Q92900 whole entry, looked up, the tested form may be a part): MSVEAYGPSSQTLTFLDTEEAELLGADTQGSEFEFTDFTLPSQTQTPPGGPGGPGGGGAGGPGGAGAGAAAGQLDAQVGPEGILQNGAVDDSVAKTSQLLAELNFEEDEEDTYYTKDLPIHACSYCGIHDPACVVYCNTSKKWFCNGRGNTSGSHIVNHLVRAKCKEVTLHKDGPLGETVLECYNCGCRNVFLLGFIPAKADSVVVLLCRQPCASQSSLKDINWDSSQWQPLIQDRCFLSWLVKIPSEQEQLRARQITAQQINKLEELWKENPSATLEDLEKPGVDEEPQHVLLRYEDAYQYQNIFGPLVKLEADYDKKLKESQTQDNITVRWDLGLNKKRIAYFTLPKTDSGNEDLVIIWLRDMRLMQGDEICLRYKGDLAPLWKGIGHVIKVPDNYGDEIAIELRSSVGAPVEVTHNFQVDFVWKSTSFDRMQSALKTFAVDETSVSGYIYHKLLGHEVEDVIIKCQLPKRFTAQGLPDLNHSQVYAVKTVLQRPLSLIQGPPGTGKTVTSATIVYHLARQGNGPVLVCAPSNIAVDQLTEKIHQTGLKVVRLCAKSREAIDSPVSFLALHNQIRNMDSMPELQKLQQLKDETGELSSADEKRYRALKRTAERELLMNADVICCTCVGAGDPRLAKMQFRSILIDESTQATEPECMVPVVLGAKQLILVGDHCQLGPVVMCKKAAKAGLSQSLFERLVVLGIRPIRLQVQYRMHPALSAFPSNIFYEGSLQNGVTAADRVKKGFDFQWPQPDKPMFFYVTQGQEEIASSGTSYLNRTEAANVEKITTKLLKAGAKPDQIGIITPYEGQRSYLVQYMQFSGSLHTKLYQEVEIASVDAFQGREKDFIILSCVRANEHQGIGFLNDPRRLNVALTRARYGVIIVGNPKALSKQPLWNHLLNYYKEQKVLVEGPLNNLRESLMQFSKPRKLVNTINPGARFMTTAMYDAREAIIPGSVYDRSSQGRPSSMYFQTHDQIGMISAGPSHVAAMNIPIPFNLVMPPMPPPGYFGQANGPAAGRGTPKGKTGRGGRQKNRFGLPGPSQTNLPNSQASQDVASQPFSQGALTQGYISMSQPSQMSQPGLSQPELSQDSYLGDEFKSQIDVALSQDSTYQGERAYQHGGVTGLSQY

RNA-dependent ATPase activity of UPF1 upon addition of UPF2 (1.5-fold excess), against UPF1 alone (UPF1 [1]): 2.4 fold | RNA-dependent ATPase activity of MOV10NTD-UPF1hel upon addition of UPF2 (1.5-fold excess), against the chimera alone [2]: 1.1 fold | nucleic acid unwinding activity of MOV10NTD-UPF1hel (300 nM) upon addition of UPF2 (600 nM), against the chimera alone [2]: 1.25 fold
Molecule: UPF2s (domain or fragment)

Molecule: UUUUUUUUUUUU (ssRNA) [U12 RNA]
Kd [3]: 36 nM | binding result (UPF1 [4]): binds

fold less UPF2 coprecipitated than with Flag-MOV10fl and Flag-MOV10NTD (Flag-MOV10hel): ~4 fold less
B1: UPF2 (near full-length variant, residues 121-1227) (domain or fragment, human, UniProt Q9HAU5 121-1227, looked up)
chain: MKEKEESIQLHQEAWERHHLRKELRSKNQNAPDSRPEENFFSRLDSSLKKNTAFVKKLKTITEQQRDSLSHDFNGLNLSKYIAEAVASIVEAKLKISDVNCAVHLCSLFHQRYADFAPSLLQVWKKHFEARKEEKTPNITKLRTDLRFIAELTIVGIFTDKEGLSLIYEQLKNIINADRESHTHVSVVISFCRHCGDDIAGLVPRKVKSAAEKFNLSFPPSEIISPEKQQPFQNLLKEYFTSLTKHLKRDHRELQNTERQNRRILHSKGELSEDRHKQYEEFAMSYQKLLANSQSLADLLDENMPDLPQDKPTPEEHGPGIDIFTPGKPGEYDLEGGIWEDEDARNFYENLIDLKAFVPAILFKDNEKSCQNKESNKDDTKEAKESKENKEVSSPDDLELELENLEINDDTLELEGGDEAEDLTKKLLDEQEQEDEEASTGSHLKLIVDAFLQQLPNCVNRDLIDKAAMDFCMNMNTKANRKKLVRALFIVPRQRLDLLPFYARLVATLHPCMSDVAEDLCSMLRGDFRFHVRKKDQINIETKNKTVRFIGELTKFKMFTKNDTLHCLKMLLSDFSHHHIEMACTLLETCGRFLFRSPESHLRTSVLLEQMMRKKQAMHLDARYVTMVENAYYYCNPPPAEKTVKKKRPPLQEYVRKLLYKDLSKVTTEKVLRQMRKLPWQDQEVKDYVICCMINIWNVKYNSIHCVANLLAGLVLYQEDVGIHVVDGVLEDIRLGMEVNQPKFNQRRISSAKFLGELYNYRMVESAVIFRTLYSFTSFGVNPDGSPSSLDPPEHLFRIRLVCTILDTCGQYFDRGSSKRKLDCFLVYFQRYVWWKKSLEVWTKDHPFPIDIDYMISDTLELLRPKIKLCNSLEESIRQVQDLEREFLIKLGLVNDKDSKDSMTEGENLEEDEEEEEGGAETEEQSGNESEVNEPEEEEGSDNDDDEGEEEEEENTDYLTDSNKENETDEENTEVMIKGGGLKHVPCVEDEDFIQALDKMMLENLQQRSGESVKVHQLDVAIPLHLKSQLRKGPPLGGGEGEAESADTMPFVMLTRKGNKQQFKILNVPMSSQLAANHWNQQQAEQEERMRMKKLTLDINERQEQED
notes: UPF2, human, residues 121-1227; also called near full-length UPF2
